T1: PUF4 RNA-binding domain (Saccharomyces cerevisiae, UniProt P25339 537-888)
T1 sequence: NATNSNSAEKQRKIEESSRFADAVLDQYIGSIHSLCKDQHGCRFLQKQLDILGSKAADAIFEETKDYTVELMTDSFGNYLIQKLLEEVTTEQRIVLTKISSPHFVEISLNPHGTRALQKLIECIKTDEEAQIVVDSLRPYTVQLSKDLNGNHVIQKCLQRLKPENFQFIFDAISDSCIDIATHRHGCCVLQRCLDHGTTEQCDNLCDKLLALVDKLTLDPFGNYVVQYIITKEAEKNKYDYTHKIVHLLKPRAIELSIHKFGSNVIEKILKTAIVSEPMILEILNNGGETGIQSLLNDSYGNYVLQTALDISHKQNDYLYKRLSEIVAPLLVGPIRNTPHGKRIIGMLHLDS


Biological target: T1, PUF4 RNA-binding domain
Test: Mg; RNA-MaP; 20 mM Na-HEPES pH 7.4, 30 mM KOAc, 0.75 mM MgCl2, 0.1% Tween-20, 5% glycerol, 0.1 mg/mL BSA, 2 mM DTT; 25 C; 0.0125-409.6 nM protein
Details: tags: N-His6-TEV cleaved; C-SNAP kept, Cy3B-labelled; label: tethered on chip by stalled RNA polymerase

Binder	Kd [nM]
Id_ii_S2_P5E.3_K5.2_C5.2_H5.2_A5.1_F5.1_T5.2_[A12T] (ssRNA) RNA: UUUGAUUAAUAUGAUAUCGUUCUUUCUCUUAUAUUAUUAUUUUCUUUCUCGAUAUCAUAUUAAUCUUU	110
Id_ii_S2_P5E.4_K5.3_C5.2_[C-2G]_[T-1C]_H5.3_A5.1_F5.1_T5.2_[T11C]_[A12G] (ssRNA) RNA: UUUGAUUAAUAUGAUAUCGUUCUUUCUGCACACUUAUUACGUUCUUUCUCGAUAUCAUAUUAAUCUUU	> 2300
UCUCUUUGUAAUAUGAUCUCUU (ssRNA) [Ib_S1_P5E.1_K5.1_C5.1_H5.1_A5.1_[T5A]_F5.1_[T9G]_T5.1]	22.3
Id_ii_S2_P5E.4_K5.3_C5.2_[C-2G]_[T-1C]_H5.3_A5.1_F5.1_T5.2_[T11C]_[A12T] (ssRNA) RNA: UUUGAUUAAUAUGAUAUCGUUCUUUCUGCACACUUAUUACUUUCUUUCUCGAUAUCAUAUUAAUCUUU	409
Id_ii_S2_P5E.4_K5.3_C5.2_[C-2G]_[T-1C]_H5.3_A5.1_F5.1_T5.2_[T11C] (ssRNA) RNA: UUUGAUUAAUAUGAUAUCGUUCUUUCUGCACACUUAUUACAUUCUUUCUCGAUAUCAUAUUAAUCUUU	729
Id_ii_S2_P5E.4_K5.3_C5.2_[C-2G]_[T-1C]_H5.3_A5.1_F5.1_T5.2_[T11A]_[A12C] (ssRNA) RNA: UUUGAUUAAUAUGAUAUCGUUCUUUCUGCACACUUAUUAACUUCUUUCUCGAUAUCAUAUUAAUCUUU	451
Id_ii_S2_P5E.4_K5.3_C5.2_[C-2G]_[T-1C]_H5.3_A5.1_F5.1_T5.2_[T11A]_[A12T] (ssRNA) RNA: UUUGAUUAAUAUGAUAUCGUUCUUUCUGCACACUUAUUAAUUUCUUUCUCGAUAUCAUAUUAAUCUUU	408
Id_ii_S2_P5E.4_K5.3_C5.2_[C-2G]_[T-1C]_H5.3_A5.1_F5.1_T5.2_[T11A] (ssRNA) RNA: UUUGAUUAAUAUGAUAUCGUUCUUUCUGCACACUUAUUAAAUUCUUUCUCGAUAUCAUAUUAAUCUUU	549
Id_ii_S2_P5E.4_K5.3_C5.2_[C-2G]_[T-1C]_H5.3_A5.1_F5.1_T5.2_[A12C] (ssRNA) RNA: UUUGAUUAAUAUGAUAUCGUUCUUUCUGCACACUUAUUAUCUUCUUUCUCGAUAUCAUAUUAAUCUUU	359
Id_ii_S2_P5E.4_K5.3_C5.2_[C-2G]_[T-1C]_H5.3_A5.1_F5.1_T5.2_[A12T] (ssRNA) RNA: UUUGAUUAAUAUGAUAUCGUUCUUUCUGCACACUUAUUAUUUUCUUUCUCGAUAUCAUAUUAAUCUUU	341
Id_ii_S2_P5E.4_K5.3_C5.2_[C-2G]_H5.3_A5.1_F5.1_T5.2_[T11C]_[A12C] (ssRNA) RNA: UUUGAUUAAUAUGAUAUCGUUCUUUCUGUACACUUAUUACCUUCUUUCUCGAUAUCAUAUUAAUCUUU	3.03
Id_ii_S2_P5E.4_K5.3_C5.2_[C-2G]_H5.3_A5.1_F5.1_T5.2_[T11C]_[A12T] (ssRNA) RNA: UUUGAUUAAUAUGAUAUCGUUCUUUCUGUACACUUAUUACUUUCUUUCUCGAUAUCAUAUUAAUCUUU	11
Id_ii_S2_P5E.4_K5.3_C5.2_[C-2G]_H5.3_A5.1_F5.1_T5.2_[T11A]_[A12C] (ssRNA) RNA: UUUGAUUAAUAUGAUAUCGUUCUUUCUGUACACUUAUUAACUUCUUUCUCGAUAUCAUAUUAAUCUUU	2.19
UCUCUUUGUACUAUCAUCUCUU (ssRNA) [Ic_S1_P5E.1_K5.1_C5.1_H5.1_A5.1_[T5C]_F5.1_[T9C]_T5.1]	17.8
Id_ii_S2_P5E.4_K5.3_C5.2_[C-2G]_H5.3_A5.1_F5.1_T5.2_[T11A]_[A12T] (ssRNA) RNA: UUUGAUUAAUAUGAUAUCGUUCUUUCUGUACACUUAUUAAUUUCUUUCUCGAUAUCAUAUUAAUCUUU	1.37
Id_ii_S2_P5E.4_K5.3_C5.2_[C-2G]_H5.3_A5.1_F5.1_T5.2_[T11A] (ssRNA) RNA: UUUGAUUAAUAUGAUAUCGUUCUUUCUGUACACUUAUUAAAUUCUUUCUCGAUAUCAUAUUAAUCUUU	1.43
Id_ii_S2_P5E.4_K5.3_C5.2_[C-2G]_H5.3_A5.1_F5.1_T5.2_[A12C] (ssRNA) RNA: UUUGAUUAAUAUGAUAUCGUUCUUUCUGUACACUUAUUAUCUUCUUUCUCGAUAUCAUAUUAAUCUUU	1.12
Id_ii_S2_P5E.4_K5.3_C5.2_[C-2G]_H5.3_A5.1_F5.1_T5.2_[A12T] (ssRNA) RNA: UUUGAUUAAUAUGAUAUCGUUCUUUCUGUACACUUAUUAUUUUCUUUCUCGAUAUCAUAUUAAUCUUU	1.25
Id_ii_S2_P5E.4_K5.3_C5.2_[C-2G]_H5.3_A5.1_F5.1_T5.2 (ssRNA) RNA: UUUGAUUAAUAUGAUAUCGUUCUUUCUGUACACUUAUUAUAUUCUUUCUCGAUAUCAUAUUAAUCUUU	2.21
Id_ii_S2_P5E.4_K5.3_C5.2_[C-2T]_[T-1C]_H5.3_A5.1_F5.1_T5.2_[T11C]_[A12G] (ssRNA) RNA: UUUGAUUAAUAUGAUAUCGUUCUUUCUUCACACUUAUUACGUUCUUUCUCGAUAUCAUAUUAAUCUUU	> 2300
Id_ii_S2_P5E.4_K5.3_C5.2_[C-2T]_[T-1C]_H5.3_A5.1_F5.1_T5.2_[T11C]_[A12C] (ssRNA) RNA: UUUGAUUAAUAUGAUAUCGUUCUUUCUUCACACUUAUUACCUUCUUUCUCGAUAUCAUAUUAAUCUUU	> 2300
Id_ii_S2_P5E.4_K5.3_C5.2_[C-2T]_[T-1C]_H5.3_A5.1_F5.1_T5.2_[T11C]_[A12T] (ssRNA) RNA: UUUGAUUAAUAUGAUAUCGUUCUUUCUUCACACUUAUUACUUUCUUUCUCGAUAUCAUAUUAAUCUUU	> 2300

— article PMC9352680, “A comprehensive thermodynamic model for RNA binding by the Saccharomyces cerevisiae Pumilio protein PUF4”
